In PMC5931981, “Identification of a pyrophosphate-dependent kinase and its donor selectivity determinants” (Nature Communications, 2018):

Columns and labels:
TM0415 = target: T1, TM0415 (Thermotoga maritima, UniProt Q9WYP6); experiment: X-ray crystal structure; assay type: binding; conditions: untagged
T1 construct: gene TM_0415; synthetic gene in pET-15b, E. coli BL21(DE3)pLysS; N-terminal His-tag for activity and kinetics; untagged for crystallization; monomer
T1 sequence (Q9WYP6 1-286): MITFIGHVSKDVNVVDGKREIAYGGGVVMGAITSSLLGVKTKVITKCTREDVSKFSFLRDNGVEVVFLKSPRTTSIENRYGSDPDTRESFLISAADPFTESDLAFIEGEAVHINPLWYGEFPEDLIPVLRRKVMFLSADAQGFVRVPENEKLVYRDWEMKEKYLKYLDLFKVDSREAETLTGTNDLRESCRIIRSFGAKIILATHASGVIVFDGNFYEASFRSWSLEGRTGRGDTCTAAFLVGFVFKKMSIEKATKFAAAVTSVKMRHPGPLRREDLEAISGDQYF

malachite green Pi assay [1] = substrate: O=P(O)(O)OP(=O)(O)O; experiment: malachite green Pi assay; assay type: biochemical, Thermotoga maritima; conditions: myo-inositol as acceptor, 500 µM MgCl2, 50 mM MES-NaOH pH 6.1, 70 °C, His-tagged, upper limit, velocity constant at 15-500 µM
malachite green Pi assay [2] = substrate: O[C@H]1[C@H](O)[C@@H](O)[C@H](O)[C@@H](O)[C@H]1O; experiment: malachite green Pi assay; assay type: biochemical, Thermotoga maritima; conditions: PPi as phosphate donor, 500 µM MgCl2, 50 mM MES-NaOH pH 6.1, 70 °C, His-tagged

O[C@H]1[C@H](O)[C@@H](O)[C@H](O)[C@@H](O)[C@H]1O [myo-inositol]
X-ray crystal structure (TM0415; phosphate-acceptor site, with PCP and Mg2+, also in sulfate complex 5YSQ): D11, N78, Q141, and R145 in TM0415 interact with four of the six hydroxyl groups

O=P(O)(O)CP(=O)(O)O [PCP]
X-ray crystal structure (TM0415; phosphate-donor site, chain A, with Mg2+ and myo-inositol): Chain A was complexed with PCP, a magnesium ion, and myo-inositol

B1: TM0415 (Thermotoga maritima MSB8) (protein)
chain: T1 sequence (Q9WYP6 1-286)
notes: synthetic gene in pET-15b, E. coli BL21(DE3)pLysS; N-terminal His-tag for activity and kinetics; untagged for crystallization; monomer
kcat (malachite green Pi assay [1]): ~9.5 s⁻¹
Km (malachite green Pi assay [2]): 12 ± 2 mM
kcat (malachite green Pi assay [2]): 10.8 ± 0.3 s⁻¹
